Source: PMC8777168 (2022)

B1: STUB1, expressed from a plasmid in 293T cells [not stated] / MIF in 293T cells [not stated] (parent complex)
chain 1: MKGKEEKEGGARLGAGGGSPEKSPSAQELKEQGNRLFVGRKYPEAAACYGRAITRNPLVAVYYTNRALCYLKMQQHEQALADCRRALELDGQSVKAHFFLGQCQLEMESYDEAIANLQRAYSLAKEQRLNFGDDIPSALRIAKKKRWNSIEERRIHQESELHSYLSRLIAAERERELEECQRNHEGDEDDSHVRAQQACIEAKHDKYMADMDELFSQVDEKRKKRDIPDYLCGKISFELMREPCITPSGITYDRKDIEEHLQRVGHFDPVTRSPLTQEQLIPNLAMKEVIDAFISENGWVEDY
chain 2: PMFIVNTNVPRASVPDGFLSELTQQLAQATGKPPQYIAVHVVPDQLMAFGGSSEPCALCSLHSIGKIGGAQNRSYSKLLCGLLAERLRISPDRVYINYYDMNAANVGWNNSTFA

Variants of: B1
Assay: co-immunoprecipitation (IP: Myc, IB: MIF) and western blot, band quantification; 293T cells transfected for 24 h with STUB1 mutation plasmids; triplicate experiments, mean ± SD; read off a plot

Variant | response [MIF/Input ratio]
chain 1 R66A | ~0.25
chain 1 K143A | ~0.22

Further lines, results first:

response [MIF/Input ratio] | Variant
~1 | chain 1 W147A
~1 | chain 1 S149A
